Laboratory results: article PMC7101349

What was measured:
Assay in all cases: not stated; tetrameric assembly of the BRIL-KcsA linker constructs; how it was judged is not told
[1] = biological target: BRIL-2turn-KcsA (construct 7) (UniProt P0A334)
[2] = biological target: BRIL-AAA-KcsA (construct 2) (UniProt P0A334)
[3] = biological target: BRIL-AAAA-KcsA (construct 3, 1 turn) (UniProt P0A334)
[4] = biological target: BRIL-AAAAA-KcsA (construct 4) (UniProt P0A334)
[5] = biological target: BRIL-AARAAA-KcsA (construct 5) (UniProt P0A334)
[6] = biological target: BRIL-AARAAAA-KcsA (construct 6) (UniProt P0A334)

Question: “BRIL-2turn-KcsA (construct 7) (from UniProt P0A334 24-160)” was tested. Which stoichiometry N [1] did it give?
Answer: Its stoichiometry N is 4.

Question: With “BRIL-AAA-KcsA (construct 2) (from UniProt P0A334 24-160)” as the substance, how does the stoichiometry N [2] read?
Answer: The stoichiometry N was 4.

Question: “BRIL-AAAA-KcsA (construct 3, 1 turn) (from UniProt P0A334 24-160)” was tested. Which stoichiometry N [3] did it give?
Answer: Its stoichiometry N is 4.

Question: Which stoichiometry N [4] does the source give for “BRIL-AAAAA-KcsA (construct 4) (from UniProt P0A334 24-160)” here?
Answer: Its stoichiometry N is 4.

Question: With “BRIL-AARAAA-KcsA (construct 5) (from UniProt P0A334 24-160)” as the substance, how does the stoichiometry N [5] read?
Answer: The stoichiometry N was 4.

Question: With “BRIL-AARAAAA-KcsA (construct 6) (from UniProt P0A334 24-160)” as the substance, how does the stoichiometry N [6] read?
Answer: Its stoichiometry N is 4.
